Experimental data taken from publication doi:10.1101/2025.07.12.664526 (bioRxiv, 2025).
Substitutions are numbered along the chain they refer to. Numbers in names are those of the source.

What was measured:
[1] = molecular target: WalR T101M fused to SmBIT or LgBIT (split luciferase) (S. aureus ATCC29213) (UniProt Q7A8E1); test: split reporter
[2] = molecular target: WalR, wild type, full-length, C-terminal 6xHis, phosphorylated by PknB^CYTO with ATP (S. aureus ATCC29213) (UniProt Q7A8E1); test: SEC-MALS
[3] = molecular target: T1, WalR wild type fused to SmBIT or LgBIT (split luciferase) (S. aureus ATCC29213, UniProt Q7A8E1 1-233); test: split reporter
T1 sequence (looked up): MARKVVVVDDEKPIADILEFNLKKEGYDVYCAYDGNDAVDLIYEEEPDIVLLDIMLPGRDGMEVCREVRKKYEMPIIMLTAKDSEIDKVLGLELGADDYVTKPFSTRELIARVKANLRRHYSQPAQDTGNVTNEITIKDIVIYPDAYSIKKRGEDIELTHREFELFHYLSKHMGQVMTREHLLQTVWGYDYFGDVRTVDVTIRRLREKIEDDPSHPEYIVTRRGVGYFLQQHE

split reporter = molecular target: the molecule itself; test: split reporter

WalR T101M fused to SmBIT or LgBIT (split luciferase) (from UniProt Q7A8E1 1-233) (natural protein)
peak luciferase signal in the wild type background [1]: 4340 RLU
peak luciferase signal in the ΔpknB background [1]: 3650 RLU
percent decrease of peak luciferase signal area against wild type WalR/WalR [1]: 65.2%

WalR, wild type, full-length, C-terminal 6xHis, phosphorylated by PknB^CYTO with ATP (from UniProt Q7A8E1 1-233) (natural protein)
stoichiometry N [2]: 2

B1: WalR T101M fused to SmBIT or LgBIT (split luciferase) (natural protein, S. aureus ATCC29213, UniProt Q7A8E1 1-233, looked up)
chain: T1 sequence (looked up) with T101M
percent decrease of peak area against wild type WalR/WalR [3]: 56.5%

B2: WalR T101S fused to SmBIT or LgBIT (split luciferase) (natural protein, S. aureus ATCC29213, UniProt Q7A8E1 1-233, looked up)
chain: T1 sequence (looked up) with T101S
percent decrease of peak area against wild type WalR/WalR (split reporter): 52.4%

B3: WalR T101A fused to SmBIT or LgBIT (split luciferase) (natural protein, S. aureus ATCC29213, UniProt Q7A8E1 1-233, looked up)
chain: T1 sequence (looked up) with T101A
percent decrease of peak area against wild type WalR/WalR (split reporter): 56.7%
